Measurements: paper PMC10397247

Tests used:
[1] = target: T1, P6SC1; test: two-hybrid library CC1; settings: mean of both orientations;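 note: natural log of median RNA to DNA barcode read ratio; higher means stronger binding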
T1 chain: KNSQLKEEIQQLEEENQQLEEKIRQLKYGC

[2] = target: T2, P11; test: two-hybrid library CC1;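 note: natural log of median RNA to DNA barcode read ratio; higher means stronger binding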
T2 chain: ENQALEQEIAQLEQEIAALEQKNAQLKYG

[3] = target: T3, P3; test: two-hybrid library CC1; settings: mean of both orientations;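 note: natural log of median RNA to DNA barcode read ratio; higher means stronger binding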
T3 chain: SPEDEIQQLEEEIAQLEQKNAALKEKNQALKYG

[4] = target: T4, P8mS; test: two-hybrid library CC1; settings: mean of both orientations;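 note: natural log of median RNA to DNA barcode read ratio; higher means stronger binding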
T4 chain: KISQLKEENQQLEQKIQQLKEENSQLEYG

[5] = target: T5, P6SC2; test: two-hybrid library CC1; settings: mean of both orientations;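 note: natural log of median RNA to DNA barcode read ratio; higher means stronger binding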
T5 chain: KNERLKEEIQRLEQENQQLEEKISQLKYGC

[6] = target: T6, P7; test: two-hybrid library CC1; settings: mean of both orientations;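 note: natural log of median RNA to DNA barcode read ratio; higher means stronger binding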
T6 chain: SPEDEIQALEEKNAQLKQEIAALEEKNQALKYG

[7] = target: T7, P4; test: two-hybrid library CC1; settings: mean of both orientations
T7 chain: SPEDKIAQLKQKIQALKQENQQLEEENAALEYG

[8] = target: T8, P7mS; test: two-hybrid library CC1; settings: mean of both orientations
T8 chain: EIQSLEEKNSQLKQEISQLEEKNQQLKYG

[9] = target: T9, P4mS; test: two-hybrid library CC1; settings: mean of both orientations
T9 chain: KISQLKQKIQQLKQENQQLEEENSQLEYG

[10] = target: T10, P9; test: two-hybrid library CC1; settings: mean of both orientations
T10 chain: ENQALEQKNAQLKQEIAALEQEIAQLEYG

[11] = target: T11, P12; test: two-hybrid library CC1; settings: mean of both orientations
T11 chain: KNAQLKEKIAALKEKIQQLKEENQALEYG

[12] = target: T12, P3mS; test: two-hybrid library CC1; settings: mean of both orientations
T12 chain: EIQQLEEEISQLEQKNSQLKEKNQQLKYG

[13] = target: T13, P8; test: two-hybrid library CC1; settings: mean of both orientations
T13 chain: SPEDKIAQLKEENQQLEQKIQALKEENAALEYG

[14] = target: T14, P6mS; test: two-hybrid library CC1; settings: mean of both orientations
T14 chain: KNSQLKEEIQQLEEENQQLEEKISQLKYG

[15] = target: T15, P5mS; test: two-hybrid library CC1; settings: mean of both orientations
T15 chain: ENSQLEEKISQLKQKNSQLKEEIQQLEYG

[16] = target: T16, P5SC1; test: two-hybrid library CC1; settings: mean of both orientations
T16 chain: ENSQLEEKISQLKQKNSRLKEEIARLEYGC

[17] = target: T17, P5SC2; test: two-hybrid library CC1; settings: mean of both orientations
T17 chain: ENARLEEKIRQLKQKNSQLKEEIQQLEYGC

[18] = target: T18, P5; test: two-hybrid library CC1; settings: mean of both orientations
T18 chain: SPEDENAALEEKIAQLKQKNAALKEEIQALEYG

[19] = target: T19, P6; test: two-hybrid library CC1; settings: mean of both orientations
T19 chain: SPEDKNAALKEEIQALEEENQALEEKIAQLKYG

[20] = target: T20, 4H2915-bN; test: two-hybrid library CCNG1
T20 chain: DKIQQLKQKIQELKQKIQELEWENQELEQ

[21] = target: T21, 4H3057-bN; test: two-hybrid library CCNG1
T21 chain: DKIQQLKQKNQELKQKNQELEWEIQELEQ

[22] = target: T22, 4H2588-bN; test: two-hybrid library CCNG1
T22 chain: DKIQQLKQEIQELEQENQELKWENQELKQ

[23] = target: T23, 4H2438-bN; test: two-hybrid library CCNG1
T23 chain: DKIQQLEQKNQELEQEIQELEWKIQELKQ

[24] = target: T24, 4H2223-bN; test: two-hybrid library CCNG1
T24 chain: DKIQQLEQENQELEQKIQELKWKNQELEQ

[25] = target: T25, 4H575-bA; test: two-hybrid library CCNG1
T25 chain: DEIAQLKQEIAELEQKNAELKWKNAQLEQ

[26] = target: T26, 4H908-bN; test: two-hybrid library CCNG1
T26 chain: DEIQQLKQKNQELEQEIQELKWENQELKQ

[27] = target: T27, 4H741-bN; test: two-hybrid library CCNG1
T27 chain: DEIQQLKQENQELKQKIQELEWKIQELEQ

[28] = target: T28, 4H2143-bN; test: two-hybrid library CCNG1
T28 chain: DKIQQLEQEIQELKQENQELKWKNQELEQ

[29] = target: T29, 4H462-bN; test: two-hybrid library CCNG1
T29 chain: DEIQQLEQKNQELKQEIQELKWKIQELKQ

[30] = target: T30, 4H319-bN; test: two-hybrid library CCNG1
T30 chain: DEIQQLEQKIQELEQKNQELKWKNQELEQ

[31] = target: T31, 4H2134-bN; test: two-hybrid library CCNG1
T31 chain: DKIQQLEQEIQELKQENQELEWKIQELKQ

[32] = target: T32, 4H2717-bN; test: two-hybrid library CCNG1
T32 chain: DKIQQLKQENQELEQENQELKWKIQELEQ

[33] = target: T33, 4H477-bN; test: two-hybrid library CCNG1
T33 chain: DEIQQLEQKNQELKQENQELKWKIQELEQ

[34] = target: T34, 4H182-bN; test: two-hybrid library CCNG1
T34 chain: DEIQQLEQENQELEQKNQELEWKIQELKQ

[35] = target: T35, 4H2503-bN; test: two-hybrid library CCNG1
T35 chain: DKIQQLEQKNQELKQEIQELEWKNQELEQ

[36] = target: T36, 4H3277-bN; test: two-hybrid library CCNG1
T36 chain: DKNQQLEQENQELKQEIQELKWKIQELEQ

[37] = target: T37, 4H348-bN; test: two-hybrid library CCNG1
T37 chain: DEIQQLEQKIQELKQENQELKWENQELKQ

[38] = target: T38, 4H2473-bN; test: two-hybrid library CCNG1
T38 chain: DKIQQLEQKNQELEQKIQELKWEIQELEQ

[39] = target: T39, 4H492-bN; test: two-hybrid library CCNG1
T39 chain: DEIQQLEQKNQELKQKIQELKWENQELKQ

[40] = target: T40, 4H2692-bN; test: two-hybrid library CCNG1
T40 chain: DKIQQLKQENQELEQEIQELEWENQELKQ

[41] = target: T41, 4H2839-bN; test: two-hybrid library CCNG1
T41 chain: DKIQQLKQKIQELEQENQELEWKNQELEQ

[42] = target: T42, 4H40-bN; test: two-hybrid library CCNG1
T42 chain: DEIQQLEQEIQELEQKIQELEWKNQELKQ

For ENQALEQEIAQLEQEIAALEQKNAQLKYG [P11], the interaction score [1] was -2.75, the interaction score [2] was -2.71 and the interaction score [3] was -2.69. The interaction score [4] was -2.69, the interaction score [5] was -2.64 and the interaction score [6] was -2.69. The interaction score [7] was -0.75, the interaction score [8] was -2.62 and the interaction score [9] was -1.07. The interaction score [10] was -2.25, the interaction score [11] was 0.313 and the interaction score [12] was -2.8. It also gave an interaction score [13] of -2.59, an interaction score [14] of -2.82 and an interaction score [15] of -2.74. For the same binder, the interaction score [16] was -2.59, the interaction score [17] was -2.41 and the interaction score [18] was -2.7. For the same binder, the interaction score [19] was -2.83.

Work on DEIQQLEQENQELEQKNQELEWKIQELKQ [4H182-bN] yielded an interaction score [20] of 0.186, an interaction score [21] of 2.24 and an interaction score [22] of -0.916. The interaction score [23] was -0.143, the interaction score [24] was -0.0217 and the interaction score [25] was -2.96. For the same binder, the interaction score [26] was -2.24, the interaction score [27] was -0.228 and the interaction score [28] was -0.437. For the same binder, the interaction score [29] was -0.134, the interaction score [30] was -0.552 and the interaction score [31] was -0.568. It also gave an interaction score [32] of 0.137, an interaction score [33] of -1.61 and an interaction score [34] of -0.13. For the same binder, the interaction score [35] was -0.284, the interaction score [36] was -0.0991 and the interaction score [37] was -0.689. The interaction score [38] was -0.481, the interaction score [39] was 0.471 and the interaction score [40] was 0.536. For the same binder, the interaction score [41] was 0.367 and the interaction score [42] was 0.0984.
